In US20140335096A1 (Eli Lilly, published 2014):

Tests used:
glucagon (1-29) [1] = biological target: T1, glucagon (1-29) (Homo sapiens); experiment: Biacore SPR, antibody captured by goat anti-mouse Fc, glucagon (1-29) as analyte; KD = koff/kon
T1 construct: Glucagon (1-29), Anaspec 22456, as analyte in Biacore; the listing names Homo sapiens; also called GCG; glucagon peptide
Protocol: (§1) Briefly described, the anti-glucagon monoclonal antibody IBA009 or IBA032, may be dissolved in HBS-EP buffer (150 mM sodium chloride, 3 mM EDTA, 0.005% (w/v) surfactant P-20, and 10 mM N-2-hydroxyethylpiperazine-N′-2-ethanesulfonic acid (HEPES) at pH 7.4; #BR-1001-88). Goat anti-mouse Fc antibody is immobilized on flow cells 1 to 4 of a CMS sensor chip at a level of 4000 response units (RUs) using amine coupling chemistry to capture anti-glucagon antibodies.
(§2) Binding may be evaluated using multiple analytical cycles. Each cycle is performed at a flow rate of 50 μl/minute, and may consist of the following steps: injection of about 10 μl of the anti-glucagon monoclonal antibody IBA009 or IBA032 at 10 μg/ml aiming at a capture of 40-100 RUs, injection of 250 μl of glucagon (1-29) (Anaspec 22456)—(starting at 100 nM and using two-fold serial dilutions for each cycle) followed by 20 minutes for dissociation, and regeneration using about 30 μl of 10 mM glycine hydrochloride, pH 1.5. Association and dissociation rates for each cycle may be evaluated using a “1:1 (Langmuir) binding” model in the BIAevaluation software 4.1.
(§3) The anti-glucagon monoclonal antibodies IBA009 and IBA032 may be tested for binding kinetics to glucagon.

glucagon (1-29) [2] = biological target: T1, glucagon (1-29); experiment: Biacore SPR, antibody captured by goat anti-mouse Fc, glucagon (1-29) as analyte, 25 C, 1:1 Langmuir model
Protocol: as §1, §2, §3

glucagon (1-29) [3] = biological target: T1, glucagon (1-29); experiment: affinity for glucagon against commercial antibody 2D3-2B11 (Sigma-Aldrich WH0002641M1); method of the reference value not stated
glucagon (1-29) [4] = biological target: T1, glucagon (1-29); experiment: affinity for glucagon against commercial antibody K79bB10 (Sigma-Aldrich G2654); method of the reference value not stated

T1 sequence (peptide, as listed by the source): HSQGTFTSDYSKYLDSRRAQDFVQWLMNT

Row | Binder | Kd (glucagon (1-29) [1]) [pM] | koff (glucagon (1-29) [2]) [s⁻¹] | kon (glucagon (1-29) [2]) [M⁻¹ s⁻¹] | fold stronger affinity than reference antibody 2D3-2B11 (glucagon (1-29) [3]) [fold] | fold stronger affinity than reference antibody K79bB10 (glucagon (1-29) [4]) [fold]
1 | anti-glucagon monoclonal antibody IBA009 (antibody, mouse IgG1, kappa, V domains shown, Captured through goat anti-mouse Fc in Biacore; biotin-labelled as capture antibody in the sandwich ELISA; also called capture antibody IBA009; anti-mid region antibody IBA009) VH: QVQLLQPGAELVKPGASVKLSCKASGYNFNDYWLNWVKQRPGQGLEWIGNAYPGWGIINYNEKFKSKVTLTVDTSSSTVYMQLSSLTSDDSAVYYCARDYDNAYWGQGTTVTVSS VL: NIVMTQSPKSMSMSVGERVTLTCKASENAGTYVAWYQQKPEQSPKLLIYNGSHRYDGVPDRFTGSGSATDFTLTISSVQAEDLADYYCGQSYSYPWTFGGGTKLEMKR | 0.73 | 1.1e-05 | 1.5e+07 | ~130 | –
2 | anti-glucagon monoclonal antibody IBA032 (antibody, mouse IgG1, kappa, V domains shown, Captured through goat anti-mouse Fc in Biacore; ruthenium-labelled as detection antibody in the sandwich ELISA; also called detection/conjugate antibody IBA032; anti-glucagon C-terminal antibody IBA032) VH: QVQLQQSGAELVKPGASVKMSCKASGYNFTDYWIHWVKERPGQGLEWIGYFSTHSDYAIINQKFRDKATLTADKSSRLAYMQLSSLTSEDSAIYYCARGGLGLSYWGQGTTVTVSS VL: DIVMTQAAPSVLVTPGESVSISCRSPKSLVGPMGRTYLYWFLQRPGQSPQLLIYRRNNLAPGVPDRFSGSGSGTAFTLRISRVEAEDVGIYYCMQHLEFPLTFGAGTKLEIKR | 8.7 | 0.00024 | 2.7e+07 | – | ~800
